# Assay: soluble on expression in E. coli; label from the status in PepcDB or PDB records
row,Sequence,soluble on expression in E. coli
1,MTDKQAIREQMWQEMTEKKVGRFPFPLKGRIPNFKGAEQATRHLIQLEAYKQAKVVKVNPDSPQLPLRAQVLMDGKTLLVPTPRLKDGFILVKPEWVPEGEERKAVSLRNILSYGKVISLTEMPEIDLIVMGSVAVDRSGRRIGKGEGYADREYAIIRELGNRPVPVVTTVHQVQLVDVELPRDAYDVTVDWIATTEGLMQSVGAIEKPTGIVWSEVTEEELEAMPVLREIRELTKRQLEHHHHHH,soluble
2,MGSDKIHHHHHHMDNLMLNNKIYLEGTCVSNLEFSHEMYGEGFYTFKISVNRLSDVKDILPVTISERLLTEIDIKEGAELIIEGQLRSYNKFIEGSNRLILTVFARDVQPCIEKSKNPNQIFLDGYICKEPIYRTTPFGREIADILLAVNRPYNKSDYIPTISWGRNSRFCKTLNVGDNIRVWGRLQSRKYQKKVGEDEVVTKTAYEVSISKLEYADEIDEEIDKSVENLAE,not soluble
3,ATMTLTDANFQQAIQGDGPVLVDFWAAWCGPCRMMAPVLEEFAEAHADKVTVAKLNVDENPETTSQFGIMSIPTLILFKGGEPVKQLIGYQPKEQLEAQLADVLQ,soluble
4,DPTKNLRSVDLAVVNEDEGATRNGEFNRYGDKVVKGLLDKDYLAFKQVSADEAAKGLDNGTYLFTVTIPEKFSENVNTLLADQPTKPEIILSYNDFNGTNGSVLTGGLVPKIQQAVSASISESYATKLVNGVNKLGGGLERAADGSAKLEEGSGKLKDGLAKGVAGSQKLNDGSHQLAEGTAKLADGTGQLADGASRLAAGTAKLGNGAAQIDDGVGTLVNTLIPVLTTAQAAAPQLQQAADALRAVGMVAEADRIQDLATKFDANNPDNQVNKLNKLKNGTATLRYMLSDPSSEYYGGVLKLSDGVAKAHDGAVRLNDGAHRLADGTAQLANGTQQLYDGAGRLNEGANTLATKLDEGAKNAPKVPNAEASAKQISVPIVYKENNANPVQTVVDSNDPTAKKLNGGAS,not soluble
5,IPLPEQPGGSSDFIAFTDKAKLTFTTSRPMKMVYTLDETEPTLTSTPYTVPLEFAQTGLLKIRTVTAGGKMSPVRRIRVEKQPFNMSMEVPAPKPGLTIRTAYGDLYDVPDLQQVASWEVGTVSSLEEIMHGKEKITSPEVLERRVVEATGYVLIPEDGVYEFSTENNEFWIDNVKLIDNVGEVKKFSRRNSSRALQKGYHPIKTIWVGAIQGGWPTYWNYSRVMIRLKGEEKFKPISSDMLFQ,not soluble
6,MGSDKIHHHHHHMQANKNIQKLTPYLSIPHKIWNSSQSNILKLDWNEATIPPSPYVIESIKKFLVNGNLNWYPNTKNLYLLDKIAEYTKQINSSFVELFEGSDSAHECIIDVFLDKCDKIGIVSPTYDNFRSRANGVGIETISFTLDDNFNLDFDSLEYFIHEKRIKLLYLCNPNNPTGKSYNIQKIKSLIINNPNVMFIIDEAYYEFTSQSVCDLVEQCNNLIITRTFSKAFALASFRIGYIISHPENIESINKLRNPKSVPMLSQIAANAALEDLQYMRDYVDEVSCARMEFVKFLNTLTTGGGGIFNDSVANFVLIQNENISLFVGFLEKEGIFIRNYSHLISKNCRISIGTRNQMSYVAEKIQEFAKKQGGFHLV,not soluble
7,MGSDKIHHHHHHMNSIFTEENLLAFTTAARFGSFSKAAEELGLTTSAISYTIKRMETGLDVVLFTRSTRSIELTESGRYFFRKATDLLNDFYAIKRRIDTISQGIEARVRICINQLLYTPKHTARLLQVLKKQFPTCQITVTTEVYNGVWDAIINNQANIAIGAPDTLLDGGGIDYTEIGAIRWAFAIAPDHPLAFVPEPIAESQLRLYPNIMVEDTAHTINKKVGWLLHGQESILVPDFNTKCQCQILGEGIGFLPDYMVREAMTQSLLVTRQIHNPRQDSRMLLATQHSATGQVTQWIKKQFAPNGILTGIYQDLLHREN,not soluble
8,MVAAWNRWDLSGIIKHWSPDIVHYSEDNEVSSADMVKLMEGGLKAFPDLQLEMKSIMAEEDRVALRITVTATHQGEFMGVQPTGQRVSWHLVEELRFVDGKVVEHWDVINMRPLLVRLGKLPDVPKVVLEASA,soluble
9,MAARRAPISRRDRPAKPALSRRWIVDTAVALMRAEGLEKVTMRRLAQELDTGPASLYVYVANTAELHAAVLDALLGEVDLTGAGAEEDWREQLRAVLTSYTLVLFAHPQLARSALVARPSGENYLRLVERVLELLARSGAPGAQVAWGVDKLLQDATATAAEQATQEHDPASHEDWSATVRALRDADEATHPAIASHMPLLVAGSAHDRLRWSFDVLVNGITRTPVPGPARGAAG,soluble
10,MGSDKIHHHHHHMDITALQQQLELIQQNDYTQLRHIDINELTLHMLQYIGTTDSYVRYQLIYKCFVHFIHHEFLMDDQLKLLLQTCLSDEYLYCDIYSPHSDGVFTRSYTVSLIALILQFANSHYFCTEEDIEEIKNKLITYTNLETDFRGYIENKGWAHCLAHVSDAFTEIVHNSYTTFEWYEELIHCLLNKIFIPSDLFHNNEDERIVTPLLAMLYHDFPQDELISIIQKKIKRLPQIRKRLSLNEYCILCANIKTFLRTLFFRTKDDHNLAFTARKTERMLKELPNYY,not soluble
11,MPEVSFIICTRNRVAVLEACLKSVQAACRAHAGFAAELVVVDNGSSDRTAERLASIAAMSDIPFTPVSEPRRGLAAARNAGLRRARGRVLVFVDDDCAVHCDYLRDLERHYASGEQGLIRGGRVELGDPRDLPFTIKRSRVCERLTPDIHPGGFVLGCNMTMHRDVAARIGDFDERFGAGGPLRSAEDTDYLVRAVLLGIPVEYVPDMTIFHHHGRRDRKAIEKLHRDYSLGNGGLCLKHIRHAPWLLRHFYWAARGALRELAGGPAFDRDLDLSHRPIVGMNVLGAARYALLLLARRPQAEPARQDQQANAEAPLLEHHHHHH,not soluble
12,MTSVLDPDRALEDEAKDKFGFVGIAKQLAPPIIEAAKGEGMVIGLEGRWGSGKTSLLNFLRAELQASKKSGIHTITIAPWLNGDTSSLVLSLLEPMAAVLKQKEDELAESYGEGQSATKERVAEVGRLLRAYGPKTARRIASLANVAGYVLPGAQAIGGALAASASAADEIFDVGPTPSELKQELAVKIQELNVGFIVILDDLDRLEPEQAVEVVRLVRSVADFPKVVYLMCYDREVLSEALKTGLKVSDGDLFLQKIVQLTFNIPLPEPFDLRTQFRNEAKAIYFEATGVDLDGAILHDLTYAVDREGMGLSTPREVKLALNSIRFVFSQVKDDVYFPDLCRLHLIKTTNYKLYKWLEIYLSVRSVLVTGDATVSEDEKTKMGEELKMLLPASGPGSVHSIWSLARFIPGVVDTEKVSERVFNAINSSAISEAVRLKRLGSPLHYRFYFALTGPKTVMPDEDFNAILELARNDIDQLESRLAAETMKRRDSGRTWFEHVLDRLDDDCISSLDESQLSGILHALSGMMDIAMKEDGEVRSFALSLDGIANIVAKRCLVRLRELNPEKQANTVRSMAQDGKAINWLVGKFFRSQLFNHGKVGERAERPEQWEISEDLLDDIIEILRKRLSEQDIKNLIPNLPNVSAYLYGWMNLTDDDQAKNWVQEYSESDEGFLDILNHLRGWAMSDKVYYPLSEKTVSSFLDWNEVKTRLDGMQLEHHHHHH,not soluble
13,MYDMINAKYLGKLIFLDFGQTITSLEETSDNSTFFIADEFGNFGSHYVGVVLEQVRSFNTVVILSYQSFANLRNIGGDNFKSQIINNTSTLIAHRLIDMMEAEEVANLYGVDITCASEIKSLKVGQALVRSISSYYGEIKDWLVQQIDKS,soluble
14,MSTTGRIHSFESCGTVDGPGIRFIVFLQGCLMRCKYCHNRDTWDTHDGKEVTVEEIIAEAKSYRHFMNASGGGITCSGGEAMLQPEFVRDFFRAAHAEGIHTCLDTNGYIRKHTEVIDEVLDATDLVMLDIKHMKDEIHQDFIGVSNRRTLDFARYLHKIGQKTWIRYVVVPGYTDDPEAAHMLGEFIKDMDNIEKVELLPYHKLGAHKWEALGLEYPLEGVNPPSKETMDEIQSILSQYHSNVKYLEHHHHHH,not soluble
15,MSLADIYAFPTGESNDGRPVRPQGVPDEVWAAVESVSTMKRIHDVRYREIPVPSTLADYGIGVEFEAGERALGDAFSAGLGSDAEPRIATGWIMMLYAHELRIDWDSNWRCVAFARLPLETAENDSLTPGMYWDDMCDYFDGIEPDSVSGTVTVTQNTAFGSMAGSTSAGCEIRVSWTPLDGTGPDGTMDAGAQVRSWAAFIRSTIRFEEDDASEGHHHHHH,soluble
